Results reported in the supplement of paper PMC10126150.
± gives the standard deviation of the averaged measurements.

Test system: ATP
Experiment: switch fluorescence ratio, 500 uM ATP over buffer (Cy3 cluster intensity, sum of 5 cycles each) (fold (ratio)); higher = stronger signal-on switching upon ATP binding; sequences stand for … in TCGTCGGCAGCGTCAGATGTGTATAAGAGACAGTTTTTTTTTTTTTTTTTTTTTTTTT…TC
Conditions: aptamer strand: ATP DNA aptamer (quencher-CACCTGGGGGAGTATTGCGGAGGAAGG + anchor), 100 nM annealed; ATP concentration: 500 uM
Outline: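 Imaging in selection buffer was followed by imaging after 15 min with 500 uM ATP at 22 °C, for Cy3-labelled switching-strand clusters annealed to 100 nM quencher-labelled ATP aptamer on a modified Illumina MiSeq flow-cell. Five of these buffer/ATP cycles ran, separated by NaOH stripping and re-annealing. The fluorescence ratio per cluster is summed target-cycle over summed buffer-cycle Cy3 intensity, averaged per switch-domain sequence; clusters outside 100-1000 RFU were removed.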
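Further: ATP exposure 15 min at 22 °C before imaging.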

Row | Sequence | switch fluorescence ratio
1 | TGATTAGTTG | 0.993 ± 0.02
2 | GGGCCCAGCT | 1.02 ± 0.031
3 | AACACGGGTA | 1.02 ± 0.055
4 | TGGGTAGGGT | 0.991 ± 0.036
5 | AAAAGTGAAA | 1.14 ± 0.2
6 | CCTACTAGAT | 1.142 ± 0.007
7 | TACCAGTGCT | 1.075 ± 0.0019
8 | TATAGTGGCC | 0.998 ± 0.022
9 | CTATCGTGGT | 0.9554 ± 0.0033
10 | CATGTGCACC | 1.014 ± 0.0092
11 | GACGTTGGGG | 0.977 ± 0.01
12 | GCTTATTTAA | 0.99 ± 0.021
13 | TAATAGTTAC | 1.01 ± 0.041
14 | TAGTGAATTT | 1 ± 0.07
15 | AGTACTGCGA | 1.05 ± 0.035
16 | TACGTTTACG | 1.018 ± 0.0027
17 | GGCGCTCAGT | 1.02 ± 0.02
18 | GTAATAGAGG | 0.9774 ± 0.0096
19 | ATCGTTCCGC | 1.22 ± 0.03
20 | TTGCGTGTGA | 1.01 ± 0.028
21 | AGGGGGGCGC | 0.993 ± 0.033
22 | ATATATGGAG | 1.011 ± 0.00029
23 | TGTTGTGATT | 0.994 ± 0.023

Row | Sequence | switch fluorescence ratio
24 | TATGCTAGGG | 0.977 ± 0.036
25 | TACGGGTAGC | 1.04 ± 0.02
26 | CGTTAGTATT | 0.9936 ± 0.00056
27 | TCGAGACAGG | 1 ± 0.027
28 | GCAGCTTGCA | 0.993 ± 0.018
29 | TGAGAAAGAG | 2.15 ± 2
30 | TTCCTGCGCT | 1.77 ± 1
31 | GGGTTCGGGA | 0.991 ± 0.027
32 | GATTGGGGTT | 0.978 ± 0.036
33 | AGTTGGCTTA | 1.01 ± 0.013
34 | GTTATTAGTG | 0.993 ± 0.016
35 | TGGGTGGGGT | 1.01 ± 0.026
36 | GAAAAGGTCA | 1.04 ± 0.019
37 | ATAAGAATTG | 1.01 ± 0.06
38 | AAGTAGTTTC | 1.01 ± 0.018
39 | GGAGGCGGGA | 1.02 ± 0.045
40 | TGCTGCTGAG | 0.971 ± 0.016
41 | TGGATAGCGC | 1.01 ± 0.011
42 | TGCGACCGTT | 1.01 ± 0.033
43 | TCGTGTGGGT | 1.01 ± 0.023
44 | AAGTGGTTGG | 0.984 ± 0.024
45 | TGAGGTCATT | 0.989 ± 0.028
46 | GCCTCAAGTT | 1.03 ± 0.052

Row | Sequence | switch fluorescence ratio
47 | AAGGTACAAG | 1.06 ± 0.047
48 | CGGGCTTGTG | 1 ± 0.011
49 | AAAGTTTATG | 1.007 ± 0.0053
50 | ACATTTAGGC | 1.048 ± 0.0088
51 | TTTGAGCCAC | 1.05 ± 0.0095
52 | GGTTATTGGT | 1.02 ± 0.021
53 | GTTCTAGGAG | 1 ± 0.019
54 | CAGTAGGGTC | 0.997 ± 0.014
55 | ATATACGGCA | 1.19 ± 0.08
56 | TTAAGTGTGG | 0.973 ± 0.031
57 | GATATTGGCG | 0.956 ± 0.013
58 | AGGGGAGTAG | 0.99 ± 0.022
59 | TTGTTGCTTG | 1.02 ± 0.028
60 | AGTGGGAGTT | 1.002 ± 0.0081
61 | TCGCGTGTTG | 1.017 ± 0.0032
62 | GGGGGGGTTC | 1 ± 0.028
63 | CAGATGGACG | 0.968 ± 0.032
64 | CCGTGCCGTT | 0.948 ± 0.024
65 | ACGCGTCAGC | 1.01 ± 0.021
66 | GTGTTAAAAT | 1.01 ± 0.018
67 | TTTGCAAGGA | 1.02 ± 0.045
68 | TCCAGTGTCG | 1.01 ± 0.056
69 | TTACTTACGA | 1.4167 ± 0.00061

Row | Sequence | switch fluorescence ratio
70 | TGATGCAGAG | 1.02 ± 0.018
71 | GGGTAATTGG | 0.986 ± 0.018
72 | GGTTCGTCTG | 0.981 ± 0.021
73 | GGCAGATTTT | 0.9986 ± 0.006
74 | CGGCGTTCCG | 1 ± 0.055
75 | AAGTTTTGTG | 0.9869 ± 0.0074
76 | ACAGCGGGGT | 1 ± 0.021
77 | GCGTTTAAGT | 1.02 ± 0.032
78 | AACGTTAGGG | 0.998 ± 0.029
79 | GAAGGGGGGT | 0.997 ± 0.029
80 | CGTTGGCGTG | 0.947 ± 0.036
81 | GTTTTTTGTG | 0.986 ± 0.013
82 | ATCGGATTGT | 1.012 ± 0.007
83 | TGGGTCCAGT | 0.98 ± 0.011
84 | AATTGACCGA | 1.05 ± 0.013
85 | AAAGGGAGAA | 0.971 ± 0.011
86 | AACAGGGGGG | 1.02 ± 0.081
87 | TGGTTCAGGG | 0.997 ± 0.04
88 | TTCCGGGGGC | 1.61 ± 0.98
89 | AATGAGGGGG | 0.978 ± 0.05
90 | TTCGGTACGT | 0.999 ± 0.0024
91 | AGGCGGCTTC | 1.03 ± 0.014
92 | AAGGAATAGG | 0.98 ± 0.016

Row | Sequence | switch fluorescence ratio
93 | GCAGTTTTTG | 0.9746 ± 0.0056
94 | GCGATCGTTT | 0.992 ± 0.011
95 | GAATGAGATT | 1.001 ± 0.0043
96 | TAATTTGGAG | 1 ± 0.039
97 | TCAATGAATA | 0.986 ± 0.02
98 | TCCGGATTTT | 1.01 ± 0.016
99 | TTTAAGATTT | 1.01 ± 0.03
100 | GTGTTAGAT | 0.964 ± 0.043
101 | TTTGTAAAGG | 0.999 ± 0.013
102 | ACAAGGGGGA | 1.02 ± 0.013
103 | AAGAGTTGCC | 1.07 ± 0.12
104 | ATTTAACGTC | 1.02 ± 0.08
105 | TTTCTTGCGG | 1.012 ± 0.0019
106 | GTAATTGGAG | 0.992 ± 0.016
107 | TAACGGAAAA | 1 ± 0.053
108 | TTTTAGGGAG | 0.992 ± 0.03
109 | GAGCTGGCGG | 1.05 ± 0.038
110 | TGCAGATTTA | 1.01 ± 0.014
111 | GGAGTTGGGG | 0.99 ± 0.02
112 | TTCAACTTTT | 1.01 ± 0.056
113 | TTTGACAGGG | 1.02 ± 0.014
114 | GTTGCCAAAG | 0.9726 ± 0.0022
115 | CGGTTGGGAG | 1.019 ± 0.0064

Row | Sequence | switch fluorescence ratio
116 | AGTTAATAAA | 1 ± 0.0019
117 | GAAGTGGTTT | 0.997 ± 0.025
118 | GAGGGTAGTC | 1.004 ± 0.007
119 | TAAGGGAGTT | 0.9874 ± 0.0095
120 | TTAGTGGTTG | 0.992 ± 0.014
121 | ATGAGGCTTT | 1.02 ± 0.011
122 | GGGGAGGGGC | 1.01 ± 0.065
123 | ATAGCCGTCG | 1.07 ± 0.12
124 | GGGTCTACCG | 0.991 ± 0.015
125 | TCTTTATAAA | 1.02 ± 0.038
126 | GGAAGGGTAT | 1 ± 0.03
127 | GACTAGGAAG | 0.994 ± 0.022
128 | TAGGGTCGT | 0.9932 ± 0.0024
129 | TAAAAAAGTT | 1.12 ± 0.26
130 | GCCGTCTAAG | 0.993 ± 0.022
131 | GGGCTAGGTT | 0.986 ± 0.031
132 | CCGATGTGGT | 1.57 ± 0.039
133 | TGGCATAGTT | 0.995 ± 0.042
134 | TCCACTGGAT | 1.03 ± 0.013
135 | ATTTTTTGGA | 1.01 ± 0.026
136 | CTCTTTGCTT | 1 ± 0.006
137 | ACGTTTTTGC | 1.02 ± 0.044
138 | TTTGGTTGGG | 1.03 ± 0.098

Row | Sequence | switch fluorescence ratio
139 | CTCGGGACGG | 1.005 ± 0.01
140 | AGGGAGATAA | 1.14 ± 0.17
141 | GGGGCTTTTC | 1.01 ± 0.027
142 | GGCGGACGGA | 1.07 ± 0.089
143 | ATAATTATCG | 0.972 ± 0.046
144 | TTAAGTCCGC | 1.17 ± 0.034
145 | AATCAGGACA | 0.9959 ± 0.0076
146 | CACACGTGGT | 0.9908 ± 0.0036
147 | ACGGGAAGGG | 1.05 ± 0.03
148 | CAGGAGAGCG | 0.9934 ± 0.0077
149 | CTGTGTATGG | 0.989 ± 0.036
150 | CTGGGAACGA | 0.998 ± 0.035
151 | CGTGGATGAC | 0.9939 ± 0.0096
152 | TTGAACTGTG | 1.02 ± 0.22
153 | ATAAAAGAAG | 1.01 ± 0.041
154 | CAACCGCCTT | 1.46 ± 0.12
155 | GCATGGAAAT | 0.985 ± 0.045
156 | TGAGCCTTGG | 0.995 ± 0.017
157 | TTGGAATCGA | 1.06 ± 0.035
